Results from publication PMC2947992, “Structure of the Extracellular Portion of CD46 Provides Insights into Its Interactions with Complement Proteins and Pathogens” (PLoS Pathogens, 2010).

Columns and labels:
[1] = biological target: human adenovirus type 11 fiber knob (human adenovirus type 11) (UniProt P35774); test: crystal structure; complex formed from purified proteins at 4°C for 2 hrs with a 1.2 molar excess of CD46-4D, separated from unbound CD46-4D by size exclusion chromatography (20 mM HEPES, 150 mM NaCl, pH 7.4); crystals at 4°C in 20% polyethylene glycol 1000, 0.2 M ammonium phosphate pH 8.0; space group P6_(3), 2.84 Å
[2] = biological target: the molecule itself; test: as above

## CD46-4D, extracellular segment of human CD46 (membrane cofactor protein) comprising all four SCR domains (domain or fragment)
[1]
  stoichiometry N (CD46-4D molecules per knob trimer): 3

B1: human adenovirus type 11 fiber knob (domain or fragment)
chain: LTFNSNNICIDDNINTLWTGVNPTEANCQIMNSSESNDCKLILTLVKTGALVTAFVYVIGVSNNFNMLTTHRNINFTAELFFDSTGNLLTRLSSLKTPLNHKSGQNMATGAITNAKGFMPSTTAYPFNDNSREKENYIYGTCYYTASDRTAFPIDISVMLNRRAINDETSYCIRITWSWNTGDAPEVQTSATTLVTSPFTFYYIREDD
notes: fiber protein of human adenovirus type 11, knob domain, amino acids 118-325; also called Ad11 knob; Ad11 fiber knob
[2]
  stoichiometry N: 3 protomers
